± gives the uncertainty stated by the source.

The nature of this data set: amyloid nucleation score (Sup35N fusion, yeast selection) (log enrichment); library NNK1; higher = more nucleation; inactive = no reads after selection. Put shortly:
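Peptides of 20 random codons, each fused to Sup35N, were expressed in psi-negative yeast. Cells were induced with 100 μM copper sulfate for 24 hours and grown 7 days at 30°C on medium lacking adenine and uracil, and plasmid inserts before and after selection were Illumina-sequenced. Nucleation scores are DiMSum log enrichments of output over input reads, centred on the mode score of non-aggregating sequences, and sequences under 100 input reads were excluded.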

In turn, IIRGRNVNSVRSNYYMGRFY had an amyloid nucleation score of 2.72 ± 0.095.

Turning to YWRNKGVVCGLCYDIVR, the amyloid nucleation score is -0.019 ± 0.97.

On to NMFAWV, for which the amyloid nucleation score entry was “inactive”.

Take RFLLLPAHPGPGVSMVYRYL: the amyloid nucleation score amounted to 0.077 ± 0.9.

As to RGYSGTTTHAATATKLS, the amyloid nucleation score turned out to be 1.56 ± 0.78.

Substance YREEEILRVVNLTIFAGPGM showed an amyloid nucleation score of -0.55 ± 0.39.

For AGWKTRHQGRVIVLGFWEGW, the amyloid nucleation score came to 0.059 ± 0.41.

FDKGVSIRPSAWRDPRVWPS showed an amyloid nucleation score of 0.417 ± 0.47.

For AAIAWVLN, the amyloid nucleation score was 0.112 ± 0.58.

Turning to SYGHLRAFFEDCSH, the amyloid nucleation score was -0.145 ± 0.51.

The substance LVVHTVRVQDR showed an amyloid nucleation score of -0.043 ± 0.41.

For the substance FNFRSS, the amyloid nucleation score is -0.618 ± 0.72.

Take LDKYLHLRLWHTVFWYSTIK: the amyloid nucleation score entry is “inactive”.

Take VVDVSYRNLRRCM: the amyloid nucleation score turned out to be 0.8 ± 0.36.

Turning to VVYDGIMSWIYYCRFVVDAV, the amyloid nucleation score entry is “inactive”.

Consider FQYEWNLVIW, for which the amyloid nucleation score is -0.074 ± 0.4.

The substance FVVAVGLIVFD returned an amyloid nucleation score of 0.027 ± 1.7.

For the substance LYFEIYRVIIFKDAFVASMR, the amyloid nucleation score was -0.63 ± 0.64.

On to TMICFVVGFFGIQDKVVKCD, for which the amyloid nucleation score was found to be 0.135 ± 0.84.

In turn, RVIAYKANPVNTFSYPVWAE came in with an amyloid nucleation score of -0.133 ± 0.44.

On to IGSMRMVSGLRFMRFVDHFS, for which the amyloid nucleation score is -0.316 ± 0.42.

RRWFYLGAFVYKSNTIDVGV displayed an amyloid nucleation score of -0.214 ± 0.35.

In turn, DYAFKFCFQLVDKAYRSLSY had an amyloid nucleation score of -0.413 ± 0.27.

VMWGQPCQIFSGYAYLRHKV displayed an amyloid nucleation score of 0.053 ± 0.48.

Consider NNQSTGWCETN, for which the amyloid nucleation score result was “inactive”.

For the substance AFSTG, the amyloid nucleation score result was “inactive”.

For VGLSVRACNFTRVGLMSFRD, the amyloid nucleation score amounted to 0.388 ± 0.37.

Consider SFLCCRVFLKSRRCRCGFMQ, for which the amyloid nucleation score amounted to 6.01 ± 0.046.

The substance NLTWRGSRDTFECYVDGA gave an amyloid nucleation score of -0.186 ± 0.47.

NMINLMGTKVDMYCRRVRGI: the amyloid nucleation score is -1.53 ± 0.84.

On to ISLPLTPN, for which the amyloid nucleation score was -0.492 ± 0.36.

For the substance DLFDFFRRRYHFRCFVSSIW, the amyloid nucleation score was -1.52 ± 2.4.

On to ILITSLWFSGVADVMANRVW, for which the amyloid nucleation score came out at 0.314 ± 0.34.

On to SIEDHDYFLIAFY, for which the amyloid nucleation score was -0.076 ± 1.6.

For VMVQANYMSSSSRSAYLSNM, the amyloid nucleation score entry is “inactive”.

Turning to RLIYRCLKSGCVFPWLSRMS, the amyloid nucleation score is -0.571 ± 1.1.

VRVKLKGLFGFNWDG returned an amyloid nucleation score of 0.36 ± 1.2.

On to RKYEGGRAKVWHGPCSVS, for which the amyloid nucleation score is 1.07 ± 0.76.

For VYWMFV, the amyloid nucleation score was found to be 0.369 ± 0.3.

With INLYVNISRFIPCV, the amyloid nucleation score turned out to be 0.027 ± 0.53.

MFDGEIFSYFNCTIV: the amyloid nucleation score was found to be 5.67 ± 0.051.

For the substance NESGSARFSPVDSYGFGSGC, the amyloid nucleation score is -0.894 ± 0.75.

In turn, FVAGDSLTHARKYAVQRL displayed an amyloid nucleation score of -1.08 ± 0.59.

Substance YFWASHISSVYLNLETCDTM came in with an amyloid nucleation score of -0.417 ± 0.42.

For TCRTEKTNTELMG, the amyloid nucleation score amounted to 1.78 ± 0.6.

SFAII displayed an amyloid nucleation score of 0.91 ± 0.3.

As for SYNWMVVFVYECI, the amyloid nucleation score is 0.931 ± 0.57.

As to ITKSRLWHDWLTRRVMTTDC, the amyloid nucleation score is -0.241 ± 1.4.

Turning to FVMFLPIYEF, the amyloid nucleation score was -0.35 ± 0.8.

Consider CIRREFSHDESDVNRSTWFI, for which the amyloid nucleation score was 0.391 ± 0.71.

In turn, CRAQGFDASSHYCYLFLALS yielded an amyloid nucleation score of -0.427 ± 1.4.

WAICDSLLVLVSRKGSASSP had an amyloid nucleation score of -1.56 ± 1.4.

Take EGRYTRDFKCRFSSERHSPS: the amyloid nucleation score worked out at 0.014 ± 0.47.

The substance TSQVSGRHVVSIDWTIWLSL yielded an amyloid nucleation score of 0.616 ± 0.66.

As for ILGFSRWNLNCISSRGRKIR, the amyloid nucleation score is -0.297 ± 0.39.

YIMFDVLLTDKRPSSSVCSC registered an amyloid nucleation score of 3.41 ± 0.069.

SEVQAPHIRCINIRALYLRN registered an amyloid nucleation score of 2.08 ± 0.39.

For the substance LYSKLSALEFMQLAIQSHLD, the amyloid nucleation score was 1.96 ± 0.15.

The substance YWICRDTGSYDFCMMGMGKA returned an amyloid nucleation score of 0.335 ± 0.34.

SMDTLLHP returned an amyloid nucleation score of -0.155 ± 0.23.

Turning to DLDCFRFVLSLGDFMGRCVS, the amyloid nucleation score was 0.266 ± 0.42.

Consider CLNSDALDHW, for which the amyloid nucleation score came out at 1.17 ± 0.42.

In turn, SCVFLGSWWRCGWMPGSHVP displayed an amyloid nucleation score of 1.93 ± 0.29.

As for MHGISQPWHKLTMTGIRLAW, the amyloid nucleation score was -0.463 ± 0.51.

In the case of QYAIFRLSKTWIIHSMDKNA, the amyloid nucleation score was 0.269 ± 0.21.

For LHRNSTPFIWHRRIEVSLGN, the amyloid nucleation score was -0.201 ± 1.3.

The substance YDIGFVI yielded an amyloid nucleation score of -0.067 ± 0.28.

In turn, SDPCKCTYCSYLSLDITLYA yielded an amyloid nucleation score of 0.05 ± 0.23.

Substance TGLVLVGMSVSCVRYRCSND registered an amyloid nucleation score of 0.009 ± 0.39.

YTRMICGSMMGGVMREMRIM displayed an amyloid nucleation score of 0.739 ± 0.36.

As for YFVLKCSC, the amyloid nucleation score was 2.05 ± 0.49.

In turn, ISCSVKILRCLTCMLFSSVV returned an amyloid nucleation score of -0.8 ± 1.3.

Substance GKNWSFLTSYFCWFTLKIH yielded an amyloid nucleation score of 1.4 ± 0.35.

The substance WFSTDGWKNMSDSLASWSCY gave an amyloid nucleation score of 0.863 ± 0.42.

For the substance IQSPC, the amyloid nucleation score was -0.171 ± 0.23.

Substance VQNDTTLHVIFILGRAW gave an amyloid nucleation score of 2.44 ± 0.12.

VVCGIPVFNLRYL returned an amyloid nucleation score of -0.495 ± 0.42.

Turning to REGLTFPRVLPIWHLFVSSD, the amyloid nucleation score is -0.139 ± 0.32.

VLTRMDKFGARQTSVTQEAG showed an amyloid nucleation score of 0.102 ± 0.62.

In turn, LICSSYTNLALILHLWSKRF displayed an amyloid nucleation score of 0.209 ± 0.26.

Substance WFTDLRNRGVVNTYTPIV displayed an amyloid nucleation score of -0.131 ± 0.29.

CRMGMLYEISQC gave an amyloid nucleation score of 0.743 ± 0.76.

VRKEKRNCAGLGRTVVWVRG came in with an amyloid nucleation score of 0.461 ± 0.35.

Substance MQKYPIRGRR gave an amyloid nucleation score of 1.64 ± 0.23.

GYIYLFGARFVVEEFGIVFW yielded an amyloid nucleation score of 0.678 ± 0.93.

As to VSQHSERQGAVCNRCFIVWR, the amyloid nucleation score was found to be 6.101 ± 0.057.

As for ERYRFRGIKLHRGDSWRDIC, the amyloid nucleation score is 1.14 ± 0.71.

Turning to FVRIRYITGRITSDRRREFC, the amyloid nucleation score is 0.591 ± 1.

For the substance VVCQSDILDLSMWTMMGVSM, the amyloid nucleation score was -0.823 ± 0.66.

The substance YSRYYVNVVWFLGKLRS registered an amyloid nucleation score of 0.012 ± 0.37.

Substance LLAIHAYREVLTGPGCGYLT gave an amyloid nucleation score of 1.15 ± 0.66.

NRCYMVYKFTV gave an amyloid nucleation score of -0.01 ± 0.33.

Substance VVMLNFYCIRNRRVWIVNIC gave an amyloid nucleation score of 3.76 ± 0.058.

IEESSWLLDFRSGSALSEVS: the amyloid nucleation score is -0.542 ± 0.86.

The substance YFYFLVNISFISIKGCLFMP came in with an amyloid nucleation score of 0.121 ± 0.4.

In turn, VVASAFSSL had an amyloid nucleation score of 0.388 ± 0.93.

Regarding QGIAACSAGSLDYVYGRWKG, the amyloid nucleation score was 3.91 ± 0.09.

For the substance LAREAGR, the amyloid nucleation score entry is “inactive”.

CISGD yielded an amyloid nucleation score of 0.429 ± 0.37.

ESRKYWVNMVIGQDDRLVHP: the amyloid nucleation score result was “inactive”.

On to LNINSFFVFGT, for which the amyloid nucleation score came out at 4.97 ± 0.057.

For the substance CTAWNVS, the amyloid nucleation score is -0.657 ± 1.7.

YYMLGYLDSYLWSENDLWMC registered an amyloid nucleation score of 0.642 ± 0.36.

The substance ISIIVVKFDMLLSNHHNSDA displayed an amyloid nucleation score of 0.486 ± 0.58.

(Values after the supplement of paper PMC12042874.)
